Source: patent publication US20090117124A1 (Pfizer, published 2009)

T1: human IgA (Sigma, Cat. No. I2636) (human)
T1 chain: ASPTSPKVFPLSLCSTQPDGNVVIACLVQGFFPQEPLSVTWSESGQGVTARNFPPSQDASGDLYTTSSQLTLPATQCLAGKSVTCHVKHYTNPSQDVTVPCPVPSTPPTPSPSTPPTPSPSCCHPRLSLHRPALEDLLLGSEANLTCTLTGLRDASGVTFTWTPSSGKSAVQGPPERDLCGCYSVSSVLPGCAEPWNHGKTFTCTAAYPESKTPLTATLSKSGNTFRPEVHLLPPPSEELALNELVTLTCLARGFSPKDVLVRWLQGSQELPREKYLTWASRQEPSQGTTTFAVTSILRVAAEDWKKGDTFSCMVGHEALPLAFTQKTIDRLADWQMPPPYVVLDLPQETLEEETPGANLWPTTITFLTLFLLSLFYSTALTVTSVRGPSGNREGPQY


How the values were obtained:
[1] = molecular target: T2, cynomolgus monkey IgE (in cynomolgus serum, Harlan Sera-Lab Ltd) (cynomolgus monkey); assay: capture ELISA, Test 1, Cyno 1
T2 construct: Serum was the source of IgE; eight serum samples; also called cynomolgus IgE; Cyno 1 to Cyno 8 serum samples
Method: (§1) Wells were washed once with 150 μL/well wash buffer (0.05% Tween-20, Sigma, Cat. No. P7949/TBS) then blocked with 150 μL/well 1% BSA (Sigma, Cat. No. A7030) in TBS for 2 hours at room temperature. Wells were washed twice with 150 μL wash buffer. 50 μL human (in-house donors) or cynomolgus serum (Harlan Sera-Lab Ltd, Loughborough) was added from neat to at least 1:16 dilution in 1% BSA/0.05% Tween-20/TBS diluent buffer. […] Wells were incubated for 2 hours at 25° C. before washing (3×150 μL wash buffer). […] Wells were incubated for 1 hour at 25° C. then washed (3×150 μL wash buffer). Streptavidin-HRP (Amersham Bioscience, Cat. No. RPN 1231) diluted 1:1000 in diluent buffer was added to all wells and incubated for 45 minutes at room temperature. Wells were washed (3×150 […] wash buffer). 50 μL OPD (Dako, Cat. No. S2045) was added to all wells and the color allowed to develop for 10 minutes before stopping the reaction with 50 μl 0.6M H₂SO₄ and the absorbance measured at 490 nm.

[2] = molecular target: T2, cynomolgus monkey IgE (in cynomolgus …); assay: capture ELISA, Test 1, Cyno 2
Method: as §1

[3] = molecular target: T2, cynomolgus monkey IgE (in cynomolgus …); assay: capture ELISA, Test 1, Cyno 4
Method: as §1

[4] = molecular target: T2, cynomolgus monkey IgE (in cynomolgus …); assay: capture ELISA, Test 1, Cyno 5
Method: as §1

[5] = molecular target: T2, cynomolgus monkey IgE (in cynomolgus …); assay: capture ELISA, Test 1, Cyno 6
Method: as §1

[6] = molecular target: T2, cynomolgus monkey IgE (in cynomolgus …); assay: capture ELISA, Test 1, Cyno 7
Method: as §1

[7] = molecular target: T1, human IgA (Sigma, Cat. No. I2636); assay: ELISA on coated immunoglobulin
Method: (§2) Wells were washed 3× with 150 μL wash buffer (0.05% Tween-20 (Sigma, Cat. No. P7949)/PBS) then blocked with 150 μL/well blocking buffer (2.5% BSA (Sigma, Cat. No. A7030)/PBS) for 2 hours at room temperature. Wells were washed 3× with 150 μL wash buffer/well. […] Antibodies were diluted in diluent buffer (PBS/1% BSA/0.05% Tween-20) and this was added to blank control wells (duplicate wells for each secondary antibody used). Antibodies were incubated for 2 hours at room temperature. Wells were washed 3× with 150 μL wash buffer/well. Binding of control antibodies to immunoglobulin was detected with anti-mouse IgG-HRP conjugate (Sigma, Cat. No. A4416) diluted 1:8000 in diluent buffer. 50 μL/well was added to control antibody and blank wells. Wells were incubated for 1 hour at room temperature, then washed 3× with 150 μL wash buffer/well. 50 μl OPD (Dako, Cat. No. […] Wells were incubated for 1 hour at room temperature then washed 3× with 150 μL wash buffer/well. Streptavidin-HRP (Amersham Bioscience, Cat. No. RPN 1231) diluted 1:2000 in diluent buffer was added to all wells and incubated for 45 minutes at room temperature. Wells were washed (3×150 μL wash buffer).

[8] = molecular target: T3, human IgG1 (Biodesign, Cat. No. A50183H) (human); assay: ELISA on coated immunoglobulin
T3 construct: Bought immunoglobulin coated on the plate
Method: as §2

[9] = molecular target: T4, human IgG3 (Biodesign, Cat. No. A50186H) (human); assay: ELISA on coated immunoglobulin
T4 construct: Bought immunoglobulin coated on the plate
Method: as §2

[10] = molecular target: T2, cynomolgus monkey IgE (in cynomolgus …); assay: capture ELISA, Test 1, Cyno 3
Method: as §1

[11] = molecular target: T2, cynomolgus monkey IgE (in cynomolgus …); assay: capture ELISA, Test 2, Cyno 1
Method: as §1

[12] = molecular target: T2, cynomolgus monkey IgE (in cynomolgus …); assay: capture ELISA, Test 2, Cyno 2
Method: as §1

[13] = molecular target: T2, cynomolgus monkey IgE (in cynomolgus …); assay: capture ELISA, Test 2, Cyno 3
Method: as §1

[14] = molecular target: T2, cynomolgus monkey IgE (in cynomolgus …); assay: capture ELISA, Test 2, Cyno 4
Method: as §1

[15] = molecular target: T2, cynomolgus monkey IgE (in cynomolgus …); assay: capture ELISA, Test 2, Cyno 5
Method: as §1

[16] = molecular target: T2, cynomolgus monkey IgE (in cynomolgus …); assay: capture ELISA, Test 2, Cyno 6
Method: as §1

[17] = molecular target: T2, cynomolgus monkey IgE (in cynomolgus …); assay: capture ELISA, Test 2, Cyno 7
Method: as §1

[18] = molecular target: T2, cynomolgus monkey IgE (in cynomolgus …); assay: capture ELISA, Test 2, Cyno 8
Method: as §1

| Binder | IgE concentration detected [1] | IgE concentration detected [2] | IgE concentration detected [3] | IgE concentration detected [4] | IgE concentration detected [5] | IgE concentration detected [6] | A290 nm [7] | A290 nm [8] | A290 nm [9] | IgE concentration detected [10] | IgE concentration detected [11] | IgE concentration detected [12] | IgE concentration detected [13] | IgE concentration detected [14] | IgE concentration detected [15] | IgE concentration detected [16] | IgE concentration detected [17] | IgE concentration detected [18] |
| --- | --- | --- | --- | --- | --- | --- | --- | --- | --- | --- | --- | --- | --- | --- | --- | --- | --- | --- |
| 5.396.1 Hc-S103N Lc-K61R (antibody, human IgG2, kappa, V domains shown, Human IgG2 kappa; leader omitted; also called 5.396.1 (S103N/K61R); 5.396.1 S103N/K61R) VH: QVQLQQWGAGLLKPSETLSLTCAVYGGSFSGYYWSWIRQPPGKGLEWIGEIHHSGSTNYNPSLKSRVTISVDTSKNQFSLKLSSVTAADTAVYYCARDNWNDNFYYYYGMDVWGQGTTVTVSS VL: DIQMTQSPSSLSASVGDRVTITCRASQGISNHLAWFQQKPGKAPKSLIYAASSLQSGVPSRFSGSGSGTDFTLTISSLQPEDFATYYCQQYNRHPFTFGPGTKVDIKR | 41 ng/mL | 0 ng/mL | 0 ng/mL | 57 ng/mL | 0 ng/mL | 0 ng/mL | 0.04 A290 nm | 0.08 A290 nm | 0.05 A290 nm | 39 ng/mL | 57 ng/mL | 39 ng/mL | 53 ng/mL | 0 ng/mL | 102 ng/mL | 0 ng/mL | 0 ng/mL | 0 ng/mL |
| 6.605.1 Hc-H3Q, M13K, D82E Lc-T25A, T53S (antibody, human IgG2, kappa, V domains shown, Human IgG2 kappa; leader omitted; also called 6.605.1 (H3Q, M13K, D82E-T25A, T53S); 6.605.1 QKE/AS) VH: QVQLVQSGAEVKKPGASVKVSCKASGYTFTSYGISWVRQAPGQGLEWMGWISAYNGNTNYAQKLQGRITMTTDTSTSTAYMELRSLRSDDTAVYYCARDGDYYDPFDYWGQGTLVTVSS VL: DIQMTQSPSSLSASVGDRVTITCRASQSISNWLNWYQQKPGKAPKLLIYGASSLKSGVPSRFSGSESGTDFTLTISSLQPEDFATYYCQQSYSTPPTFGQGTKVEIKR | 133 ng/mL | 103 ng/mL | 0 ng/mL | 173 ng/mL |  | 0 ng/mL | 0.04 A290 nm | 0.07 A290 nm | 0.04 A290 nm | 122 ng/mL |  |  |  |  |  |  |  |  |

The remaining lines, values ahead:

| IgE concentration detected [1] | IgE concentration detected [2] | IgE concentration detected [3] | IgE concentration detected [4] | IgE concentration detected [5] | IgE concentration detected [6] | A290 nm [7] | A290 nm [8] | A290 nm [9] | IgE concentration detected [10] | IgE concentration detected [11] | IgE concentration detected [12] | IgE concentration detected [13] | IgE concentration detected [14] | IgE concentration detected [15] | IgE concentration detected [16] | IgE concentration detected [17] | IgE concentration detected [18] | Binder |
| --- | --- | --- | --- | --- | --- | --- | --- | --- | --- | --- | --- | --- | --- | --- | --- | --- | --- | --- |
| 30 ng/mL | 0 ng/mL | 0 ng/mL | 37 ng/mL | 3 ng/mL | 0 ng/mL | 0.04 A290 nm | 0.07 A290 nm | 0.05 A290 nm |  |  |  |  |  |  |  |  |  | 5.396.1 (recombinant) (antibody, human IgG2, kappa, V domains shown, Fully human IgG2 kappa, expressed in 293 Freestyle cells; also called recombinant 5.396.1) VH: QVQLQQWGAGLLKPSETLSLTCAVYGGSFSGYYWSWIRQPPGKGLEWIGEIHHSGSTNYNPSLKSRVTISVDTSKNQFSLKLSSVTAADTAVYYCARDNWNDSFYYYYGMDVWGQGTTVTVSS VL: DIQMTQSPSSLSASVGDRVTITCRASQGISNHLAWFQQKPGKAPKSLIYAASSLQSGVPSKFSGSGSGTDFTLTISSLQPEDFATYYCQQYNRHPFTFGPGTKVDIKR |
| 120 ng/mL | 91 ng/mL | 0 ng/mL | 140 ng/mL | 0 ng/mL | 0 ng/mL | 0.04 A290 nm | 0.07 A290 nm | 0.05 A290 nm | 107 ng/mL |  |  |  |  |  |  |  |  | 6.605.1 (recombinant) (antibody, human IgG2, kappa, V domains shown, Human IgG2 kappa; leader omitted; also called recombinant 6.605.1) VH: QVHLVQSGAEVKMPGASVKVSCKASGYTFTSYGISWVRQAPGQGLEWMGWISAYNGNTNYAQKLQGRITMTTDTSTSTAYMDLRSLRSDDTAVYYCARDGDYYDPFDYWGQGTLVTVSS VL: DIQMTQSPSSLSASVGDRVTITCRTSQSISNWLNWYQQKPGKAPKLLIYGASTLKSGVPSRFSGSESGTDFTLTISSLQPEDFATYYCQQSYSTPPTFGQGTKVEIKR |
